Experimental data published in PMC7552397, “Crystal structure of caspase-11 CARD provides insights into caspase-11 activation” (Cell Discovery, 2020).

T1: caspase-11 p20 subunit of the catalytic domain (murine, UniProt P70343 60-266)
T1 construct: caspase-11, murine, p20 subunit, residues 60–266; source: E. coli, by auto-processing of MBP-tagged full-length wild-type caspase-11, purified
T1 sequence (looked up): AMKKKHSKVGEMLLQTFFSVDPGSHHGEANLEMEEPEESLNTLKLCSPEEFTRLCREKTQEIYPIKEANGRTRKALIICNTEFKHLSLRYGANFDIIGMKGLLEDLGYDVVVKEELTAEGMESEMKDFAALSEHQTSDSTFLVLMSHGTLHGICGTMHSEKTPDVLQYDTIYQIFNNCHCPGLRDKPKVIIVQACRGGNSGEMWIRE


What was measured:
[1] = target: the molecule itself; assay: AUC; sedimentation velocity, 50,000 r.p.m., 20.0 °C, 250 mM NaCl, 10 mM Tris-HCl pH 8.0; 0.187 and 1.53 mg/mL; c(s) distributions; monomer to homodimer and homotetramer
[2] = target: the molecule itself; assay: SEC-MALS; DAWN HELEOS 8+, room temperature, samples at 1 mg/mL in 250 mM NaCl, 10 mM Tris-HCl pH 8.0; ASTRA analysis
[3] = target: the molecule itself; assay: SEC; gel filtration on Superdex 200, 250 mM NaCl, 10 mM Tris-HCl pH 8.0; MBP-tagged proteins, 1 mg each where told
[4] = target: T1, caspase-11 p20 subunit of the catalytic …; assay: SEC; analytical gel-filtration column of auto-processed wild-type caspase-11 from E. coli; the fraction then on an SDS gel, bands identified by N-terminal sequencing and mass spectrum; conditions: both partners purified

Binder | binding result [3] | also measured
MBP-tagged caspase-11 CARD, residues 1–101 (WT-CARD^aa1–101) (domain or fragment, murine, UniProt P70343 1-101, looked up, source: E. coli Rosetta and BL21 (DE3), purified (nickel column, Superdex 200 gel filtration); not shown: MBP, N-terminal, kept; His6, C-terminal, kept) MAENKHPDKPLKVLEQLGKEVLTEYLEKLVQSNVLKLKEEDKQKFNNAERSDKRWVFVDAMKKKHSKVGEMLLQTFFSVDPGSHHGEANLEMEEPEESLNT |  | stoichiometry N [1]: 2; stoichiometry N [2]: 4
MBP-tagged caspase-11 CARD, residues 1–101, V13A L14A L17A V21A (VLLV-CARD^aa1–101) (domain or fragment, murine, UniProt P70343 1-101, looked up, source: E. coli, purified (nickel column, gel filtration); not shown: MBP, N-terminal, kept; His6, C-terminal, kept) MAENKHPDKPLKAAEQAGKEALTEYLEKLVQSNVLKLKEEDKQKFNNAERSDKRWVFVDAMKKKHSKVGEMLLQTFFSVDPGSHHGEANLEMEEPEESLNT | binds | 
MBP-tagged WT-CARD^aa1–101 with the first ten amino acids replaced by a GS repeat sequence (GS repeat mutant) (domain or fragment, murine, flexible GS repeat that replaces the first ten amino acids of caspase-11; source: E. coli, purified (nickel column, gel filtration); not shown: MBP, N-terminal, kept; His6, C-terminal, kept) GSGSGSGSGSLKVLEQLGKEVLTEYLEKLVQSNVLKLKEEDKQKFNNAERSDKRWVFVDAMKKKHSKVGEMLLQTFFSVDPGSHHGEANLEMEEPEESLNT | binds | 
caspase-11 p10 subunit of the catalytic domain (domain or fragment, murine, UniProt P70343 286-373, looked up, caspase-11, murine, p10 subunit, residues 286–373; source: E. coli, by auto-processing of MBP-tagged full-length wild-type caspase-11, purified) AVKLSHVEKDFIAFYSTTPHHLSYRDKTGGSYFITRLISCFRKHACSCHLFDIFLKVQQSFEKASIHSQMPTIDRATLTRYFYLFPGN |  | binding result [4]: binds
MBP-caspase-11 protein carrying only the C254A mutation (C254A-caspase-11) (enzyme, murine, UniProt P70343 1-373, looked up, caspase-11, murine, full-length protein with C254A; also called MBP-caspase-11 C254A; source: E. coli, purified (gel filtration); not shown: MBP, N-terminal, kept; His6, C-terminal, kept) MAENKHPDKPLKVLEQLGKEVLTEYLEKLVQSNVLKLKEEDKQKFNNAERSDKRWVFVDAMKKKHSKVGEMLLQTFFSVDPGSHHGEANLEMEEPEESLNTLKLCSPEEFTRLCREKTQEIYPIKEANGRTRKALIICNTEFKHLSLRYGANFDIIGMKGLLEDLGYDVVVKEELTAEGMESEMKDFAALSEHQTSDSTFLVLMSHGTLHGICGTMHSEKTPDVLQYDTIYQIFNNCHCPGLRDKPKVIIVQAARGGNSGEMWIRESSKPQLCRGVDLPRNMEADAVKLSHVEKDFIAFYSTTPHHLSYRDKTGGSYFITRLISCFRKHACSCHLFDIFLKVQQSFEKASIHSQMPTIDRATLTRYFYLFPGN | binds | 
